Assay results reported in IntAct's records for PubMed 22056771.

Biological target: T1, atg7_yeast ATG7 (UniProt P38862)
T1 sequence: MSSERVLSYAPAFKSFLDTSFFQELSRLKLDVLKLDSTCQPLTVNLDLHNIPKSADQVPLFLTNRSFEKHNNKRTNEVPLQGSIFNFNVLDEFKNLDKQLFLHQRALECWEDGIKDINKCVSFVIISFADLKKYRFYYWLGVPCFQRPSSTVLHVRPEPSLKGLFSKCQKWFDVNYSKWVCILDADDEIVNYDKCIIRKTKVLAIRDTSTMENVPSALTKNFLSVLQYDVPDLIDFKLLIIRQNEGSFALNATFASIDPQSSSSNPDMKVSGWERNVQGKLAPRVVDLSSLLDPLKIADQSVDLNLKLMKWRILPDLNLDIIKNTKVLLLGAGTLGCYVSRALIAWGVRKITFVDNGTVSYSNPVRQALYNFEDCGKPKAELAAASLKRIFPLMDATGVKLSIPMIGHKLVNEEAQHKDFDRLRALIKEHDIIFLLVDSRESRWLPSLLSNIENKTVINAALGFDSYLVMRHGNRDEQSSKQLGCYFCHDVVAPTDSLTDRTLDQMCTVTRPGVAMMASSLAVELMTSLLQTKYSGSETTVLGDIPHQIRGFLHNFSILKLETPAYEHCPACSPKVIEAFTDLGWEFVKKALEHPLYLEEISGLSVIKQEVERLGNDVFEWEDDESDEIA

effect of a mutation on the interaction: increasing interaction
Substance: Microtubule-associated protein 1 light chain 3 beta (Homo sapiens) (from UniProt Q9GZQ8) K65Y
